Measured values from a protein production outcome set (Wang et al. 2014).

Assay: label from the status in PepcDB records

Sequence	protein production
MISTTTVSDLYITFGLIGVFLAGMIAVLYATNRKSDSFSDYAVGGRSYGPWFIAMCYTNSWWPGATFTAFFALSVGGALGFYGMVYATLGVTAMYLMANRAWTWGKRFNLTTQPDLLGMRFNSPVVKRIASIIGIISVFPWVVMGIQALATLFQFASFGRWGVTTCLLVGVAVILIRQYWTVSMGMRGLIMTDMYQGLIAYVLCAALCIFLMFGAQASFSNLSQLPASMLVIPGGTGSTYGPMYMFSLIFTGVIGSMCWPMSFQRIYTASGVRSVKKGTLLTILLVGGFYGILMLFAAAISQDPNVAAHPQHGWFLSLFDIGGPWLLAVAIMIVLAASIGHVDGCVQVCGTQFANDLATWNTPRSDREKTILAKAGMVVFIAAASLLAYLTFDYARLQLLAQISYQGIIQLAVPLFFGVFSRRGNKQGAIVGMLVGIVIAIVLTTIYPDDIPGLGSLTSGIVGLIFNAGIFVACAVAIKPSAEEVRRVDELFAMAAPQRHPAGVAPVMS	failed
MISVFDIYKIGVGPSSSHTVGPMKAGKEFIDDLRAMGKLRDITKITVDVYGSLSLTGKGHHTDIAIIMGLAGNSPEKVDIDSIPGFIARVEETERLPVGMHCHTVSFPREGGMNFHKTNLELHENGMQIHAWIDDEKVYSKTYYSIGGGFIVDEENFGK	not failed
MISVGKGKIMITPDHNIIKPIAIVLPQFHPIRENNLWWGEGFTEWTNVVKGRPRFRGHYQPHLPKDLGYYDLRLPETRKAQAALATKYGIYGFCYYHYWFNGRRILESPVDAMLESGEPDFPFMLCWANENWTRNWDGSYNKVLLEQKYSKEDFVNHARHLIRYFKDDRYIKIDGRPVFAIYKDDIGEDIEKYLLLFRNELLKNSINVFLCRFERNIGTSRDLNRAFQVFDAGIEFQPLARQFSYLINYNNRLSRRIYKTLKKHFCFCKNIDDVYVYSHLVDNDLKYDFQQGWPIFPGVCPGWDNSARRRDTTAIIFDKSTPEIFKLWVREKIRITDWNLLPERFLFVNAWNEWAEGNHLEPCEKWGTQYLAALQAGINEM	failed
MISVTAYEWIGLFIGMIIGGLAEAWGISNPEVLIRLGKWEDRLFIGCIAIAIGAGAIVLYGLSALGVSFHWGIKPDYVIGVALGGIIFGTGIAISGYVPGTVWMALGEGRRDAIYAVLGGLLGAASWTLIYQTSFGHWLTTYLNFGQIYFGGKVGTDLKLGFIIAIVWAIIMFVIAYTLPRYRKGKSCAYLSTHKNYKLDAEEEKEYIETANFLMEGTSMPIGKNNLPEKVNYHWTVSSKLFGVTMLSVGIIIGLTVVLEMFLHQIFGESTTYSWIVAQIWLPAGYWQYSTIVVHTIGWEPFSDIGTLFGAFLASIFFTRRFQAFSNVIPPSWKERFGNSQIKRAAGAFSGAYLMLLGARMADGCASGHILSGDLQMAVSSLEFFIFVVIFLLLVAHIIYRR	failed
MISVVGAGGKTSLLFWLAELLQASGRRVLITTTTHMFMPTSHWPVVFCRDPAMLPHASLTSPISFCFHSWKANQGKVQGFTPEAIDALVQRPECDVILIEADGSRGMPLKAPDEHEPCIPKSSCCVIAVMGGHTLGAKVSTENVHRWSQFADITGLTPDATLQLSDLVALVRHPQGAFKNVPQGCRRVWFINRFSQCENAIAQSELLQPLQQHDVEAIWLGDIQEHPAIARRFVNLEHHHHHH	not failed
MISVVIPLFNKAPHIVRAVESVLEQSSPADEIIVVDDGSTDGGGELLLPYVAKHGVRLIRQENAGVSVARNHGVNLAASDYVAFLDADDFWLPNHIATLRRLIDNYPEASLFSTALIIERDGRQWRSKSTYSDGWEGVVQDFFTEYLRRFALVSSTTSCVRKKDFCSIGGFPVGVKYGEDFICWMKMALFYRVAHAEVVTAVYCLDAVNRTDQLQETDVLAPLQFIAKLLQSNELDNAQRVGLAQLFDHISFSTGARFRINSNLNGVNAIRNLSWEMGHYRVSLLMSALRFTPSLLLQAAKRFRYRQVSVV	failed
MITIENSKFKAGIAERGAELQSLVNKADNYEYVWTGDKTFWNRHAPILFPSIGKSNQDQYRLGAKTYPMSQHGFARDYDFDVSDKSDSAVTFTQHQNAETLKKFPFEYTLAVTYMLTDGGLSVHYTVTNDDSKSMPFALGFHPAFNVGLKADGSFDDYDLTVEPLNSPLQRFGIGPVPFRNGDVEDIPGAEGNRLPLTHDLLDGGLVILANSEIAKATLASPHHDHSITLDISDFPYLTIWSPEHKKAPFIAVEPFDGLPDQAGEPTDWYTKLGNTTLSAGANKQLALKVELHLEHHHHHH	failed
MITIRNKIGQMLIMGFHGSELHDNSPVAQWLSNDGLGGVLLFDKDLSTGIYGKNLRNQAQIKQLIRQLNRYASMISGGNDNLPLFTAIDYEGGVVDRLSKIEGCPPTMKARELAKLSSDDFDEEVTQMAMTLQSLGFNLNFAPVVDLNLNAHAGIIGNLGRSFSSNPEVTIRLAKQFVDVFSRYGIACAYKHFPGHGSATGDTHEGFVDVTETFQTDELIPYRSLLKDLSNPFMVMTAHVINKHLDSKGLPATLSYDVLTLLLRQSIGYDGVIISDDLQMHAISNHYSLEDALCLTINAGADMVIFANQLGTITPPEVIDVIEKLVIDKQIPYQRIDEAYRRIVRLKQQIICSELINT	failed
MITKDVKEQLIQVSGPENFDDSNAGRLVYSYDATPQYQSMPDAVIAPRNTDEISRILTICSEHRVPIVPRGSGTNLCGGTCPTEGGLVLLFKHMNQILEIDEENLTATVQPGVITLDMIRAVESKGLFYPPDPSSMKISTIGGNINENSGGLRGLKYGVTRDYVIGLEVVLANGDIIRTGGKLAKDVAGYDLTRLFVGSEGTLGIVTEAIVKLVPKPETKKTLLALYENIDAAAQTVSDIIAAKIIPATLEFLDQPTLLVIEDYAKIGLPTSAKAVLLIEQDGPFETVERDMEKIEAICKKGDAVSVQTAQTEEEAFALTEARRSALSALARLKPTTILEDATVPRSEIANMVKAINDIAAKYDISICTFGHAGDGNLHPTCTTDIRNKDEMERVEQAFAEIFEKAIELGGTITGEHGVGEMKAPYLEMKLKKEGIDAMKALKAAFDPRNILNPGKMFAKDARKRVVAER	failed
MITKFPPQWQEKLDQVAFTHLTPIQEQAFQPIVDGKNFLGISPTGTGKTLAYVFPNLLALTPKKSQQLLILAPNTELAGQIFEVTKDWAQPLGLTAQLFISGTSQKRQIERLKKGPEILIGTPGRIFELIKLKKIKMMSVNTIVLDEYDELLGDSQYDFVQKISHYVPRDHQMVYMSATNKVDQTSLAPNTFCIDLSEQTNDAIQHFYLMVDKRERTDLLRKFTNIPHFRALVFFNSLSDLGATEERLQYNGAAAVSLASDINVKFRKTILEKFKSHQLSLLLATDLVARGIDIDNLDYVIHFDVARDKENYTHRAGRTGRMGKSGIVITFVSHPEDLKKLKKFAKVSEISLKNQQLHFIN	failed
MITLNAWYVTWTELYKKKTVKMTTIYKNHSYYNSRVKNSIGKMYLQDIKTYHVQKFLNDLIDSGLAHGTVSNIRFMLSDMFDKAVLSEYIRKNPCIGVEMPKEVKKERLEHHHHHH	failed
MITNQRIARLNAWGAHGFTATGVVLAFLATIALFNNEPKACLLWLGAALIVDGVDGSLARKVNTTSVLPHFDGSVLDLVIDYLTYVFIPALFIYRYIPVPDYTLLLSVSVILVSSLFCFCNVDMKSKDNYFQGFPAAWNVVALCLYILSPAPWLTFITIIALALLTMTRMKFLHPFRVRRFMPLNIAVTTVWLLASALLIINHPHNGPLVMGLWLAMSAYFLGICIWRTSLEWLGRLKA	failed
MITRNAPRHALLGLILAGSLGTFVALPAVADNAAPAEQGQTTPALGSNLQTLKELDGKAPARRALNIQTWNTAEGARVLFVESRELPMFDMRLTFAAGSSQDQKSPGIALLTNAMLNEGVKGKDVNAIAQGFEGLGADFSNGSYRDMAVTSLRSLSAADKRDPALKLFSEVVGKPTFPADSLARIKNQLIASFKTQKQNPGAIASKELFNHLYGDHPYAHPSEGDAKSINAITLAQLKAFHAKGYAAGNAVIALVGDLSRDEAQAVAAQVSASLPKGPALAKVADPVEPKAGTTHIEFASNQTHLMLAQLGIDRNDPDYAALTVGNSVLGGGGFGSRLMTEVREKRGLTYGVSSGFTAMQVAGPFMIGLQTRAEMSENTLKLVQDIVRDFLANGPTQKEIDDVKRELTGSFPLTAASNSAIVGQLGAIGFYNLPLTYLEDYMAAAQSVTVEQVKAAMSKHLSADKMVIVTVGPTVEQKPLPAPTDKPTRQPVGVPEH	failed
MITSIARQSIILKCLRQKSVLVSNYELYYTAGLAKKCFGIAVDADMEPKQLLEELQKHIDKVSPADEQEKYLIHLLGNYEPDDTHDEQTVELFHMGETEEHIWQVSIT	not failed
MITSLPDNYSPQRQIPIKPDITFVHVRLAHFIAMGAGIGLIRYMPGTAGTIAAFPFYRFLDSIIEPVSLLLIIDVFFIMGIWACAVTGRALNSPDHSGMVWDEIVAFMLVLFFTPDHWTWQLAAFFLFRFFDIVKPAPIGYLDARLKGGLGVMLDDLLAAFYTLLCLAGWKSMVLFESYF	failed
MITVSIVSHGQSTLVEQLLADLVRLDMSMVTEVLVTLNIPEDISSKPGDYPYPVRILRNTAARGFGANHNAAFRQAEGEWFCVMNPDIRLINNPFPILIEEGAYDSAGVIAPMVVTPSGMIEDSVRCFPVLTSLAAKLFGHGDGRYLFAAGDEAFAADWVAGMFMLFRTEDFRAVGGFDEGFFLYYEDVDICARLWKSGRSVLACPKASVIHDARRSSRRNLRYMKWHALSLIRYFWKHWGRLPQTPEQLEHHHHHH	not failed
MIVLALDVYEGERAIKIAKSVKDYISMIKVNWPLILGSGVDIIRRLKEETGVEIIADLKLADIPNTNRLIARKVFGAGADYVIVHTFVGRDSVMAVKELGEIIMVVEMSHPGALEFINPLTDRFIEVANEIEPFGVIAPGTRPERIGYIRDRLKEGIKILAPGIGAQGGKAKDAVKAGADYIIVGRAIYNAPNPREAAKAIYDEIRGV	not failed
MIVPGGFPAPVTGSAVAASPPLPTVRLLSLDAHGRVLDWINWQDAACLYARDAVSWTLGEPCMQIHGGVSRLTGERSVLELHPIIAARGHARSRALDPTPTLTNTALFARDSQLCMYCGQHFSRPHLTRDHVMPVSKGGRDSWENVVTACFQCNSRKANRTPQQAHMPLLAVPYRPSWIEHLILSNRNILSDQMAFLRAQLPKRSKLSLLEHHHHHH	failed
MIVTLLAVGAAAAVGAVARYMLDQYVQYRSPGLFPLGTWLINVTGSFVLGLLVGLGARHGLPEQFVPIAGVGFCGAYTTFSTFSYELVHLREKGQVRKSLLYGASSLTAGLLAAAAGLAVESF	failed
MIYFIRKKKWLKQLEKGEAMKYAILIGDGMADYPIEKLGNRTILQAARTPAMDSIAARGRAGLAKTVPDSFPPGSDVANMSILGYDPATYYSGRAPLEAASMGVALAADDVAFRCNLITTEHGMIKDYSAGHISSDEAEILIDTLDYELSTENIRFYPGISYRHLIVAGNNLGAETECTPPHDITGEKIDKYLPRGKDGEFFSELIEASKVVLELHPVNLKRVEEGKNPANSIWVWGQGYAPKFTAFMKLYGKKGAVISAVDLLKGIGIYAGLDVIEVHGATGYLDTNYEGKVRAAIEALKTRDLVFVHVEAPDEAGHEGSIEKKLKAVEDFDSRIVAPILEYAENSDEPFTILVLPDHPTPISVKTHTRDPIPFAIYRTDKPETDNVEAFDEESVKNGSMGLVKASDLIGILIKSLEHHHHHH	not failed
MIYFTGDTHFADPRVLRIDRRPFPDMASHDVTLIRNWNEIVDAQDDIWHLGDFMSFRGGDCDQLLSMLNGRKHLIIGNNDPSTTTEATGWASVQHYSEMTLDDHLLILCHYPFRTWNKMGRKSINLHGHSHGRLKPLPRQYDVGVDAQRLRPVSLQTLLSTKPES	failed
MIYLFTGNMGTGKTSRVVSMILNNEDGLFKMKLEDGTEVDRPLYFCHIDGLDKRQFKAHELTEEQIMSAPLRDVIPEGAVLIVDEAHYTYPVRAAGRPVPPYIQELTELRHHGHTVILMTQHPSQLDIFVRNLVSKHVHLERKAIGMKQYYWYKCVTSLDNPAGVSGVEVASWKPPKEAFKYYKSASQHQ	not failed
